Results from the supplement of paper PMC9170038.

System: MS2 coat protein
Assay: apparent KD of MS2 coat protein; designed switch direction (-1 OFF switch, 1 ON switch): -1; higher = weaker reporter binding
Outline: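 Each step of the titration lasted 0.8–1.5 h at the lowest concentration and 10–20 min at the highest. The protein, SNAP-549-labelled MS2 coat protein, went from 0.7 or 1.5 nM doubling to 3 µM over RNA switches transcribed on Illumina chips by stalled E. coli RNA polymerase. Normalised cluster fluorescence was curve-fitted, and the per-design median over clusters is given as apparent KD.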

[1] = Eterna round: R95, input ligand: microRNA oligo, concentration not stated
[2] = Eterna round: R95, input ligand: FMN 200 uM
[3] = Eterna round: R95, input ligand: none
[4] = input ligand: microRNA oligo, concentration not stated

| Sequence | apparent KD of MS2 coat protein [1] | apparent KD of MS2 coat protein [2] | apparent KD of MS2 coat protein [3] | apparent KD of MS2 coat protein [4] | apparent KD of MS2 coat protein (input ligand: FMN 200 uM) | apparent KD of MS2 coat protein (input ligand: none) |
| --- | --- | --- | --- | --- | --- | --- |
| AUUGAUGUUGAGGAUAUGCUUUUAUUUAUAAUAGCAGAAGGCGAUACAUGAGGAUCACCCAUGUUCAUGGUAGU [JR_E6_Sub095] (puzzle: Exclusion 6) | 0.0504 µM |  |  |  |  |  |
| AUUGUAGAUGUGAGGAUAUCGUAGAUUUUUUGAAACGAGAAGGCACAUGAGGAUCACCCAUGUAAGAUGUAGGU [JR_BMOE4_Sub053] (puzzle: Brourd's mod of Exclusion 4) | 0.118 µM | 0.0458 µM | 0.298 µM |  |  |  |
| AUUGUAUAGGAAGGAUAUAGAAUAUUAUUUUAACAUGAGGAUCACCCAUGUAACCUUAUGUGUAGCUAGAAGGUCCAUUUAUUA [Title] (Eterna round: R96, puzzle: Exclusion NG 2) |  |  |  | 0.0902 µM |  |  |
| AUUGUUUAUGUAGGAUAUGCCUGGCGUGCCUUCGCAGAAGGACAUGAGGAUCACCCAUGUAUUGCGGUCUGCGUUCAGAUCGCG [salish99_ExNG1_r4_026] (Eterna round: R96, puzzle: Exclusion NG 1) |  |  |  | 0.0343 µM | 0.0653 µM | 0.0475 µM |
| AUUGUUUAUGUAGGAUAUGCCUGGCGUGCCUUUGCAGAAGGACAUGAGGAUCACCCAUGUAUUGCGGUCUGCGUUCAGAUCGCU [salish99_ExNG1_r4_033] (Eterna round: R96, puzzle: Exclusion NG 1) |  |  |  | 0.0287 µM | 0.0444 µM | 0.0307 µM |
| AUUGUUUGAUACCUCUAAUACAUGAGGAUCACCCAUGUUAUCGAGGAUAUGCAUUAGAGUGGUUAGCAGAAGGCGAAGUAAUUG [JR_ExcNG3_Sub030] (Eterna round: R96, puzzle: Exclusion NG 3) |  |  |  | 0.0142 µM | 0.0185 µM | 0.0171 µM |
| AUUUAACAUGAGGAUCACCCAUGUGAGGAUAUGUAAAUUUUAAACAAAUAGGAAAUGAACAGAAGGCACACCGG [JR_Exclusion1_Sub006] (puzzle: Exclusion 1) | 0.0416 µM | 0.0617 µM | 0.037 µM |  |  |  |
| AUUUAAUUUAAUAAGAUCACAUGAGGAUCACCCAUGUAUAUAUAGGAUAUCAGCUCGAAUAGAGCUGAGAAGGAUAUAUACAUG [ExNG3/8-A4] (Eterna round: R96, puzzle: Exclusion NG 3) |  |  |  | 0.0154 µM |  |  |
| AUUUAGCAAGCCUGAUCCUACAUGAGGAUCACCCAUGUAGUUCGUCUUAUUUGAAGACAACACAAAAGUGUUGUCUU [Omei Mir OFFv1 B7] (Eterna round: R97, puzzle: Sensor, turn-off variant 1) |  |  |  |  | 0.0183 µM | 0.0185 µM |
| AUUUCGGCAGGAUAUACAUGAGGAUCACCCAUGUAAAUUUUUCGUUUAACUUGAAUGUGUAGAAGGGCCAUUUA [Ex3 #61] (Eterna round: R97, puzzle: Exclusion 3) |  |  |  |  | 0.0218 µM | 0.0266 µM |
| AUUUGGUCAGGAUAUUGUUAGUUUAGUUGUUUGUAUUAGUUCGAGAAGGGACAUGAGGAUCACCCAUGUGAUUU [Ex4 #75] (Eterna round: R97, puzzle: Exclusion 4) |  |  |  |  | 0.0871 µM | 0.1 µM |
| AUUUUAAUAUAGGAUAUCGAAAUAAUUAUUUAACGAGAAGGAUGAACAUGAGGAUCACCCAUGUGGUAUCAUGG [Mat - Exclusion 6 - JL Mod - D32] (puzzle: Exclusion 6) | 0.159 µM | 0.178 µM | 0.163 µM |  |  |  |
| AUUUUAAUAUAGGAUAUCGAAAUUAUUAUUUAACGAGAAGGAUAAACAUGAGGAUCACCCAUGUGGUAUCAUGG [JMFs Solution 1] (puzzle: Exclusion 6) | 0.134 µM | 0.138 µM | 0.196 µM |  |  |  |
